{"source": "paper PMC3763537", "key": {"[1]": {"target": "NprR(ΔHTH) (B. thuringiensis strain 407)", "assay": "dynamic light scattering"}, "[2]": {"target": "NprR(ΔHTH) (B. thuringiensis strain 407)", "assay": "SEC"}, "[3]": {"target": "NprR(ΔHTH) (B. thuringiensis strain 407)", "assay": "dynamic light scattering", "remark": "listed apart in the source"}, "[4]": {"target": "NprR(ΔHTH) (B. thuringiensis strain 407)", "assay": "SEC-MALS"}, "[5]": {"target": "NprR(ΔHTH) (B. thuringiensis strain 407)", "assay": "SEC", "remark": "listed apart in the source"}, "[6]": {"target": "NprR(ΔHTH) (B. thuringiensis strain 407)", "assay": "crystal structure"}, "[7]": {"target": "NprR(ΔHTH)(Y223A/F225A) (B. thuringiensis strain 407)", "assay": "SEC"}, "[8]": {"target": "NprR(ΔHTH) (B. thuringiensis strain 407)", "assay": "ITC"}, "[9]": {"target": "NprR(ΔHTH)(N407A/Y410A) (B. thuringiensis strain 407)", "assay": "ITC"}, "[10]": {"target": "NprR(ΔHTH)(R126A) (B. thuringiensis strain 407)", "assay": "ITC"}, "[11]": {"target": "NprR(ΔHTH)(Y223A/F225A) (B. thuringiensis strain 407)", "assay": "ITC"}, "[12]": {"target": "full-length NprR (B. thuringiensis strain 407)", "assay": "dynamic light scattering"}, "[13]": {"target": "full-length NprR (B. thuringiensis strain 407)", "assay": "SEC"}, "[14]": {"target": "full-length NprR (B. thuringiensis strain 407)", "assay": "dynamic light scattering", "remark": "listed apart in the source"}, "[15]": {"target": "full-length NprR (B. thuringiensis strain 407)", "assay": "SEC-MALS"}}, "data": [{"molecule": "NprR(ΔHTH) (domain or fragment)", "values": [{"measurement": "stoichiometry N", "setting": "[1]", "value": 2}, {"measurement": "stoichiometry N", "setting": "[2]", "value": 2}, {"measurement": "stoichiometry N", "setting": "[3]", "value": 4}, {"measurement": "stoichiometry N", "setting": "[4]", "value": 2}, {"measurement": "stoichiometry N", "setting": "[5]", "value": 2}, {"measurement": "stoichiometry N", "setting": "[6]", "value": 4}]}, {"molecule": "NprR(ΔHTH)(Y223A/F225A) (domain or fragment)", "values": [{"measurement": "stoichiometry N", "setting": "[7]", "value": 2}]}, {"molecule": "NprX7 heptapeptide SKPDIVG", "values": [{"measurement": "Kd", "setting": "[8]", "value": 100, "unit": "nM"}, {"measurement": "Kd", "setting": "[9]", "value": 100, "unit": "nM"}, {"measurement": "Kd", "setting": "[10]", "value": 640, "unit": "nM"}, {"measurement": "Kd", "setting": "[11]", "value": 100, "unit": "nM"}]}, {"molecule": "NprX7 variant SKPDIVG-CO-NH (peptide)", "values": [{"measurement": "Kd", "setting": "[8]", "value": 5500, "unit": "nM"}]}, {"molecule": "full-length NprR (natural protein)", "values": [{"measurement": "stoichiometry N", "setting": "[12]", "value": 2}, {"measurement": "stoichiometry N", "setting": "[13]", "value": 2}, {"measurement": "stoichiometry N", "setting": "[14]", "value": 4}, {"measurement": "stoichiometry N", "setting": "[15]", "value": 2}]}, {"molecule": "YSSKPDIVG", "note": "[NprX9n …]", "values": [{"measurement": "Kd", "setting": "[8]", "value": 220, "unit": "nM"}]}, {"molecule": "SRPDVLT", "note": "[NprX7-IV (SRPDVLT)]", "values": [{"measurement": "Kd", "setting": "[8]", "value": 6000, "unit": "nM"}]}, {"molecule": "SKPDTYG", "note": "[NprX7-II (SKPDTYG)]", "values": [{"measurement": "Kd", "setting": "[8]", "value": 400, "unit": "nM"}]}, {"molecule": "SNPDIYG", "note": "[NprX7-III (SNPDIYG)]", "values": [{"measurement": "Kd", "setting": "[8]", "value": 80, "unit": "nM"}]}, {"molecule": "SSKPDIVG", "note": "[NprX8n octapeptide SSKPDIVG]", "values": [{"measurement": "Kd", "setting": "[8]", "value": 30, "unit": "nM"}]}, {"molecule": "SKPDIVGQ", "note": "[NprX8c SKPDIVGQ]", "values": [{"measurement": "Kd", "setting": "[8]", "value": 1000, "unit": "nM"}]}, {"molecule": "WKPDTLG", "note": "[NprX7 peptide (WKPDTLG) characteristic of groups V to VII]", "values": [{"measurement": "Kd", "setting": "[8]", "value": 3000, "unit": "nM"}]}]}
